Key:
[1] = target: SHP2-C SH2; experiment: SH2 binding enrichment of the phosphorylated peptide, bacterial display (enrichment ratio); higher = better substrate or ligand; peptides without Tyr show the background
[2] = target: Grb2 SH2 (UniProt P62993); experiment: as above
[3] = target: c-Src SH2; experiment: as above
[4] = target: EPHB1 (UniProt P54762); experiment: phosphorylation enrichment, bacterial display (enrichment ratio); higher = better substrate or ligand; peptides without Tyr show the background
[5] = test system: c-Src; experiment: as above
[6] = target: EPHB2 (UniProt P29323); experiment: as above
[7] = target: Jak2 (UniProt O60674); experiment: as above
[8] = test system: AncSZ; experiment: as above
[9] = target: FGFR1 (UniProt P11362); experiment: as above
[10] = target: FGFR3 (UniProt P22607); experiment: as above
[11] = target: Fyn (UniProt P06241); experiment: as above
[12] = test system: Fer (mouse); experiment: as above
[13] = target: Hck (UniProt P08631); experiment: as above
[14] = test system: c-Abl (mouse); experiment: as above
[15] = target: Fes (UniProt P07332); experiment: as above
[16] = target: MERTK (UniProt Q12866); experiment: as above
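Wherever SH2 binding enrichment of the phosphorylated peptide, bacterial display is given: peptide library displayed on the E. coli surface as eCPX fusions, selected cells deep-sequenced, score is each peptide's frequency after selection divided by its frequency in the input.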
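Wherever phosphorylation enrichment, bacterial display is given: 11-residue human phosphosite peptides and single-mutation variants displayed on the E. coli surface, counted by deep sequencing, each peptide's frequency after selection divided by its frequency in the unselected input library; frequency after pTyr selection over input frequency; kinase dosed for 20-30% of maximal phosphorylation in three min.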

Sequence of FGFR3 (P22607 whole entry, looked up): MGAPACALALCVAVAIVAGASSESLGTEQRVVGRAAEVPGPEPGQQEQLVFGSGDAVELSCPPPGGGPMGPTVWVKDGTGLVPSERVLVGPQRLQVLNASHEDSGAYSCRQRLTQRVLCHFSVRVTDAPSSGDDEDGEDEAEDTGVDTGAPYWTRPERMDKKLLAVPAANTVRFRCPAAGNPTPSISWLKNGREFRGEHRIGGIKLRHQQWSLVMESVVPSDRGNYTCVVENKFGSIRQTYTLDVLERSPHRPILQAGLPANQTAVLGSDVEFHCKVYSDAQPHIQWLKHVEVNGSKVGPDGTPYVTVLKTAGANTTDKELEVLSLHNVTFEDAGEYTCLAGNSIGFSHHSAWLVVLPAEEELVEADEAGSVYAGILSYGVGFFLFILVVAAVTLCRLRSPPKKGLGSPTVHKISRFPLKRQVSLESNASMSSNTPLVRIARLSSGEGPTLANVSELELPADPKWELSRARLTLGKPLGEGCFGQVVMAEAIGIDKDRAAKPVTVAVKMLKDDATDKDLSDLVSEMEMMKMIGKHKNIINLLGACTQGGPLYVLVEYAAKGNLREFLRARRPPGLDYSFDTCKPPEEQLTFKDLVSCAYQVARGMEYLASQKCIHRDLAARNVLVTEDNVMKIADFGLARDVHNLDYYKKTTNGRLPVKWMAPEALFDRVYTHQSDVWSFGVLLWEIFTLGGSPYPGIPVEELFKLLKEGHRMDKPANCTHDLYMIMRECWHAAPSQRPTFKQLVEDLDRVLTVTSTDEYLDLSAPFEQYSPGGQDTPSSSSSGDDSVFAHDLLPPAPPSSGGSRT
Sequence of Jak2 (O60674 whole entry, looked up): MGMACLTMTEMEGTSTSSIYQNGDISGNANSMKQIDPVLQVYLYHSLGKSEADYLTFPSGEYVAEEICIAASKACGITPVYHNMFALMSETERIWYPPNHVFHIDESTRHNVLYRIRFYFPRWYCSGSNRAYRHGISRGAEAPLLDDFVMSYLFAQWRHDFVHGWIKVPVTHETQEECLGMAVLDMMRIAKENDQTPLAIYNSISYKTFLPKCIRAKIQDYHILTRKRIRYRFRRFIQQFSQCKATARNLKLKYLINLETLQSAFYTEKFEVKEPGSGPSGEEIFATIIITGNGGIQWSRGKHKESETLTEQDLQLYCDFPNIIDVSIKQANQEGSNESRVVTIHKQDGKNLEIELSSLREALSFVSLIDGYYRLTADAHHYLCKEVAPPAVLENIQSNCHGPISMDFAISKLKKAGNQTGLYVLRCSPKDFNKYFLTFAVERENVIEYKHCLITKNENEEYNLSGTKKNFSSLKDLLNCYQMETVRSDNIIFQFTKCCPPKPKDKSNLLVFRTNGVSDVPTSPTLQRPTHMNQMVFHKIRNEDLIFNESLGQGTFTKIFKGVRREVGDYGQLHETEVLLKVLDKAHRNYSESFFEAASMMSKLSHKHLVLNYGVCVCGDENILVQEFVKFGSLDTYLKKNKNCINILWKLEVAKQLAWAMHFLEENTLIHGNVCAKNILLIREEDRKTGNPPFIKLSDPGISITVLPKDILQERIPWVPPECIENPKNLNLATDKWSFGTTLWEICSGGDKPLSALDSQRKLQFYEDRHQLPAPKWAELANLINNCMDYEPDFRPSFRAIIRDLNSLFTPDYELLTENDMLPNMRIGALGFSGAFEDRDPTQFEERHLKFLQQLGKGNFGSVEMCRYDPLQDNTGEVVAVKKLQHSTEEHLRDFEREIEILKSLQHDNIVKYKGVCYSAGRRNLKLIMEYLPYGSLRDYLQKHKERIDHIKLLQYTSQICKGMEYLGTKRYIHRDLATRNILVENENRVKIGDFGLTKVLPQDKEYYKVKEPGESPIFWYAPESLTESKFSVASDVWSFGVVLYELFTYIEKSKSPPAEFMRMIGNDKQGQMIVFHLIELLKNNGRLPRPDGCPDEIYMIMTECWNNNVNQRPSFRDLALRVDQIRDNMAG
Sequence of EPHB2 (P29323 whole entry, looked up): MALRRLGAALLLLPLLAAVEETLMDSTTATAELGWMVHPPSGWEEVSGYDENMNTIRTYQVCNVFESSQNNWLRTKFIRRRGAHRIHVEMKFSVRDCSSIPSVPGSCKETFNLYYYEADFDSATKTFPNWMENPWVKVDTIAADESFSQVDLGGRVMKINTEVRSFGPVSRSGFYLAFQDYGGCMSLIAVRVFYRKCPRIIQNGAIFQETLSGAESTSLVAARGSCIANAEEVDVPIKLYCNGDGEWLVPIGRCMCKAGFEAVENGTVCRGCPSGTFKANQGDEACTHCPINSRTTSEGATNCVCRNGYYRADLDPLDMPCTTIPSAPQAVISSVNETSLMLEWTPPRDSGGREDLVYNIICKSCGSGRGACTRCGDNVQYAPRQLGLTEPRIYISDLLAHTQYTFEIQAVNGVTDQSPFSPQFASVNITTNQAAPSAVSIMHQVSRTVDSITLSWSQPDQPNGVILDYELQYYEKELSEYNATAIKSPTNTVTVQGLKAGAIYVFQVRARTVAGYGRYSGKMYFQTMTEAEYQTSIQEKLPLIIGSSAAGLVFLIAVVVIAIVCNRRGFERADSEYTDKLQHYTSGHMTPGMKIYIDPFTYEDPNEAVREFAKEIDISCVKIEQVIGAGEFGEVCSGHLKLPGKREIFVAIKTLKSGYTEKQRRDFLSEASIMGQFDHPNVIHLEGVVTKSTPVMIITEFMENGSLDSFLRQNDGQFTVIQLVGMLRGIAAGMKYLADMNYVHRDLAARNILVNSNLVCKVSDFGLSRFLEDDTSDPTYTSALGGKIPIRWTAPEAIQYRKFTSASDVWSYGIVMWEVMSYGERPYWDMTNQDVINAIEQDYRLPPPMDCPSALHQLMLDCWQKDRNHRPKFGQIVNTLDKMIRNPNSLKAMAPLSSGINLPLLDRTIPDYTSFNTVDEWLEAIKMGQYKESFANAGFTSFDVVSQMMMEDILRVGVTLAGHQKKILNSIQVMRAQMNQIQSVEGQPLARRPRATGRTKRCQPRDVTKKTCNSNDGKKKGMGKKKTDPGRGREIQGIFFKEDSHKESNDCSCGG
Sequence of Fes (P07332 whole entry, looked up): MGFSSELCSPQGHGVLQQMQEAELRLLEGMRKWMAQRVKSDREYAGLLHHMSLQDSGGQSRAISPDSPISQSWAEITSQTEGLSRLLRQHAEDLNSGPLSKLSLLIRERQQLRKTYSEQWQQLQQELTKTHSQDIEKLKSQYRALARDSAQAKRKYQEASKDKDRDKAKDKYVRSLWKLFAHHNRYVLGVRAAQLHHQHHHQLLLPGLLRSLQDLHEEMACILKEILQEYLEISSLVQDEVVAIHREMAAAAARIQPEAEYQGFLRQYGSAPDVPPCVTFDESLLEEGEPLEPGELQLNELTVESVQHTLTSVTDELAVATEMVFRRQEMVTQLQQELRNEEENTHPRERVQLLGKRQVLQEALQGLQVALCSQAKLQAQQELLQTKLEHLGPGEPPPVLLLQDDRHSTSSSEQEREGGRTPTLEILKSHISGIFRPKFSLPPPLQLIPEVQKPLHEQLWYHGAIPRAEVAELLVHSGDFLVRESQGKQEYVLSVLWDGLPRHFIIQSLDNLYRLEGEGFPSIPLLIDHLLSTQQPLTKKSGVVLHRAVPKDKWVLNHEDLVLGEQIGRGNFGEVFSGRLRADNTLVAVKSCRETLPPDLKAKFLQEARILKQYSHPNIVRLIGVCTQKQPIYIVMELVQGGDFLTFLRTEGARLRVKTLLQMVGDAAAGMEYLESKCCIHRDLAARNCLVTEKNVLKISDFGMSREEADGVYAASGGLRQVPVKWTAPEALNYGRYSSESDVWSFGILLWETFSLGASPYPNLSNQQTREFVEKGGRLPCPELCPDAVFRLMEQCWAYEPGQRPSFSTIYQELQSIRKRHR
Sequence of Fyn (P06241 whole entry, looked up): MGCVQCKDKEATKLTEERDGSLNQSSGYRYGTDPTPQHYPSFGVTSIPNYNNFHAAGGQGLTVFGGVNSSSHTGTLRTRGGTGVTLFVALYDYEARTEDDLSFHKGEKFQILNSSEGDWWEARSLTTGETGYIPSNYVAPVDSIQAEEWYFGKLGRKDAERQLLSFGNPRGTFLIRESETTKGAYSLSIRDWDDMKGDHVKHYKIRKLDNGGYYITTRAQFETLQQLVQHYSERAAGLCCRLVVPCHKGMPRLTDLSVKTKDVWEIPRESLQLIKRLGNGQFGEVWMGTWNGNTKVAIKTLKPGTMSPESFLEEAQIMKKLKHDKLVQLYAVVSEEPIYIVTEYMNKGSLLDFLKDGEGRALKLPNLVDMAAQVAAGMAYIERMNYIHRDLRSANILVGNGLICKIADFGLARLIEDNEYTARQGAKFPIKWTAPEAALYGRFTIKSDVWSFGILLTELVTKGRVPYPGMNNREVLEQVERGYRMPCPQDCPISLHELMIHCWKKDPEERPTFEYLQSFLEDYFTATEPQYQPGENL
Sequence of Hck (P08631 whole entry, looked up): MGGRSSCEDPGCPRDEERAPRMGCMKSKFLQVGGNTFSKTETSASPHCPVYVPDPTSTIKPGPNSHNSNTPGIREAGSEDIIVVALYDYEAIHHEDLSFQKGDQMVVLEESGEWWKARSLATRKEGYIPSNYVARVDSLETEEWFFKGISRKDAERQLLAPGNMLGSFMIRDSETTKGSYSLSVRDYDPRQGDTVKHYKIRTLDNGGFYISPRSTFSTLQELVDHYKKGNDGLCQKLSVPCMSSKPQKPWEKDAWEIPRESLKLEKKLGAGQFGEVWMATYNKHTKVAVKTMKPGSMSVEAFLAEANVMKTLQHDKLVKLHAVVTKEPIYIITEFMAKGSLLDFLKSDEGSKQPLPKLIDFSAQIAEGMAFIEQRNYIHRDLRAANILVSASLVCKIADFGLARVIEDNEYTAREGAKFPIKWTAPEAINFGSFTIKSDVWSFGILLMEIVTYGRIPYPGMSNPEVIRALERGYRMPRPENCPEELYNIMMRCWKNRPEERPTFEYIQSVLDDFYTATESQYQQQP

Sequence	SH2 binding enrichment [1]	SH2 binding enrichment [2]	SH2 binding enrichment [3]	phosphorylation enrichment [4]	phosphorylation enrichment [5]	phosphorylation enrichment [6]	phosphorylation enrichment [7]	phosphorylation enrichment [8]	phosphorylation enrichment [9]	phosphorylation enrichment [10]	phosphorylation enrichment [11]	phosphorylation enrichment [12]	phosphorylation enrichment [13]	phosphorylation enrichment [14]	phosphorylation enrichment [15]	phosphorylation enrichment [16]
GREEFYVHFVG [KAT8_Y90_YF]	0.621	0.867	0.472	0.661	0.693	0.602	1.37	1.23	0.582	0.841	0.458	0.513	0.581	0.896	1.52	0.559
GRLFAYPDTHR [CAT_Y358]	0.909	0.84	0.508	0.49	0.356	0.434	0.605	0.641	0.44	0.538	0.421	0.476	0.397	0.597	0.756	0.344
GTFEDYVEGLR [MYL6_Y89_YF]	0.553	0.9	0.5	0.534	0.416	0.534	0.971	1.08	0.545	0.685	0.427	0.454	0.508	0.688	1.11	0.461
GTYEDYVEGLR [MYL6_Y89]	0.645	0.777	0.766	1.31	1.43	1.19	0.885	1.31	0.617	0.743	1.14	0.579	0.726	0.748	1.22	0.513
GVRYTYTIDGS [DCX_Y105_I104T]	5.17	1.07	1.43	0.562	0.56	0.623	0.981	0.986	0.521	0.758	0.543	0.429	0.483	0.634	1.08	0.447

Now from value to sequence, other results behind:

SH2 binding enrichment [1]	SH2 binding enrichment [2]	SH2 binding enrichment [3]	Sequence	phosphorylation enrichment [4]	phosphorylation enrichment [5]	phosphorylation enrichment [6]	phosphorylation enrichment [7]	phosphorylation enrichment [8]	phosphorylation enrichment [9]	phosphorylation enrichment [10]	phosphorylation enrichment [11]	phosphorylation enrichment [12]	phosphorylation enrichment [13]	phosphorylation enrichment [14]	phosphorylation enrichment [15]	phosphorylation enrichment [16]
0.613	0.715	0.603	GTTIHYNFMCN [TP53_Y234_C229G_YF]	0.743	0.467	0.718	1.13	1.12	0.544	0.822	0.477	0.63	0.532	0.888	1.32	0.465
0.872	0.769	0.393	GVRLYYRVRES [RB1_Y454_M457R]	0.435	0.285	0.447	0.964	1.54	0.662	0.781	0.435	0.483	0.408	0.39	1.08	0.403

— the supplement of paper PMC10065799, “High-throughput profiling of sequence recognition by tyrosine kinases and SH2 domains using bacterial peptide display” (eLife, 2023)
